IntAct's records for PubMed 9294234

B1: Receptor protein kinase CLAVATA1 (Arabidopsis thaliana (Mouse-ear cress)), Q9SYQ8 (parent)
chain: MAMRLLKTHLLFLHLYLFFSPCFAYTDMEVLLNLKSSMIGPKGHGLHDWIHSSSPDAHCSFSGVSCDDDARVISLNVSFTPLFGTISPEIGMLTHLVNLTLAANNFTGELPLEMKSLTSLKVLNISNNGNLTGTFPGEILKAMVDLEVLDTYNNNFNGKLPPEMSELKKLKYLSFGGNFFSGEIPESYGDIQSLEYLGLNGAGLSGKSPAFLSRLKNLREMYIGYYNSYTGGVPPEFGGLTKLEILDMASCTLTGEIPTSLSNLKHLHTLFLHINNLTGHIPPELSGLVSLKSLDLSINQLTGEIPQSFINLGNITLINLFRNNLYGQIPEAIGELPKLEVFEVWENNFTLQLPANLGRNGNLIKLDVSDNHLTGLIPKDLCRGEKLEMLILSNNFFFGPIPEELGKCKSLTKIRIVKNLLNGTVPAGLFNLPLVTIIELTDNFFSGELPVTMSGDVLDQIYLSNNWFSGEIPPAIGNFPNLQTLFLDRNRFRGNIPREIFELKHLSRINTSANNITGGIPDSISRCSTLISVDLSRNRINGEIPKGINNVKNLGTLNISGNQLTGSIPTGIGNMTSLTTLDLSFNDLSGRVPLGGQFLVFNETSFAGNTYLCLPHRVSCPTRPGQTSDHNHTALFSPSRIVITVIAAITGLILISVAIRQMNKKKNQKSLAWKLTAFQKLDFKSEDVLECLKEENIIGKGGAGIVYRGSMPNNVDVAIKRLVGRGTGRSDHGFTAEIQTLGRIRHRHIVRLLGYVANKDTNLLLYEYMPNGSLGELLHGSKGGHLQWETRHRVAVEAAKGLCYLHHDCSPLILHRDVKSNNILLDSDFEAHVADFGLAKFLVDGAASECMSSIAGSYGYIAPEYAYTLKVDEKSDVYSFGVVLLELIAGKKPVGEFGEGVDIVRWVRNTEEEITQPSDAAIVVAIVDPRLTGYPLTSVIHVFKIAMMCVEEEAAARPTMREVVHMLTNPPKSVANLIAF
partner: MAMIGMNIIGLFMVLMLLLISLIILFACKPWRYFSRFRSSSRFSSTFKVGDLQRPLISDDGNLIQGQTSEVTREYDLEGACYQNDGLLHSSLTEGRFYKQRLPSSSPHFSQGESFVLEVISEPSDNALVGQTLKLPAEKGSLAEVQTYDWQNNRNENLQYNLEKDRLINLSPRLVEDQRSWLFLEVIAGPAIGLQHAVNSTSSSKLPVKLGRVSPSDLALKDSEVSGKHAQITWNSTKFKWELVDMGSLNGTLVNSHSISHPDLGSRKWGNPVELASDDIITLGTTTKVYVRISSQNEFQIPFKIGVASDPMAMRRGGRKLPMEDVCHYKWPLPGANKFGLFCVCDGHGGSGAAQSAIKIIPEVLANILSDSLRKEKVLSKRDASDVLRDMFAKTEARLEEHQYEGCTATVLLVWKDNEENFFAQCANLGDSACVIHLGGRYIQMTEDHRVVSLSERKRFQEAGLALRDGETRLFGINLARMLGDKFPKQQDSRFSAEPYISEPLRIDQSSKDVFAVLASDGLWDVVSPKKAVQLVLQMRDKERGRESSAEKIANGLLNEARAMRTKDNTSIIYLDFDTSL

Variants of: B1
Conditions: with KAPP

Variant	effect of a mutation on the interaction
K720E	disrupting interaction
G856D	disrupting interaction

Variants of: B1
Conditions: with KAPP
Remark: another data set of the same source

Variant	effect of a mutation on the interaction
G856D	decreasing interaction
